Assay results published in patent US20220033481A1 (NANJING LEGEND BIOTECH, published 2022).

Assays:
human transferrin [1] = target: T1, human transferrin (human, UniProt P02787 20-698); test: SPR, BIAcore T200, sdAb amine-coupled to CM5 chip, transferrin injected
Method: (§1) Experiments were performed using a BIAcore T200 optical sensor platform and research grade CM5 sensor chips (GE Healthcare). AS01274 sdAb and AS01299 sdAb were immobilized on the sensor chip surface by standard amine coupling. All experiments were carried out in HEPES buffer [10 mM HEPES (pH 7.4), 150 mM NaCl, 3.4 mM EDTA, 0.005% Tween 20] at 25° C. Human Transferrin and Cynomolgus monkey Transferrin were injected at serial dilutions ranging from 3.9 nM to 2000 nM at a flow rate of 30 μl/min unless otherwise indicated. The amount of bound analyte after subtraction from the blank control surface is shown as relative response units (RU). The double referenced sensorgrams from each injection series were analyzed for binding kinetics using BIA evaluation software (GE Healthcare). Dissociation constants (KDs) were calculated from the on- and off-rates (kₒₙ and koff, respectively), as determined by global fitting of the experimental data to a 1:1 Langmuir binding model (Chi²<1).

[2] = target: T2, cynomolgus monkey transferrin (cynomolgus monkey, UniProt A0A2K5UXZ0 20-695); test: as above
T2 construct: also called cynomolgus transferrin
Method: as §1

human transferrin [3] = target: T1, human transferrin; test: SPR, BIAcore T200, human transferrin amine-coupled to CM5 chip, sdAb injected
Method: as §1, with “Healthcare; Little Chalfont, United Kingdom). Human transferrin was” for “Healthcare). AS01274 sdAb and AS01299 sdAb were”, “Human Transferrin and Cynomolgus monkey Transferrin were injected at serial dilutions ranging from 3.9 nM to 2000 nM at a flow rate of 30 μl/min unless otherwise indicated.” left out

[4] = target: T2, cynomolgus monkey transferrin; test: SPR, BIAcore T200, cynomolgus monkey transferrin as ligand, sdAb as analyte

T1 sequence (P02787 20-698 limits assumed): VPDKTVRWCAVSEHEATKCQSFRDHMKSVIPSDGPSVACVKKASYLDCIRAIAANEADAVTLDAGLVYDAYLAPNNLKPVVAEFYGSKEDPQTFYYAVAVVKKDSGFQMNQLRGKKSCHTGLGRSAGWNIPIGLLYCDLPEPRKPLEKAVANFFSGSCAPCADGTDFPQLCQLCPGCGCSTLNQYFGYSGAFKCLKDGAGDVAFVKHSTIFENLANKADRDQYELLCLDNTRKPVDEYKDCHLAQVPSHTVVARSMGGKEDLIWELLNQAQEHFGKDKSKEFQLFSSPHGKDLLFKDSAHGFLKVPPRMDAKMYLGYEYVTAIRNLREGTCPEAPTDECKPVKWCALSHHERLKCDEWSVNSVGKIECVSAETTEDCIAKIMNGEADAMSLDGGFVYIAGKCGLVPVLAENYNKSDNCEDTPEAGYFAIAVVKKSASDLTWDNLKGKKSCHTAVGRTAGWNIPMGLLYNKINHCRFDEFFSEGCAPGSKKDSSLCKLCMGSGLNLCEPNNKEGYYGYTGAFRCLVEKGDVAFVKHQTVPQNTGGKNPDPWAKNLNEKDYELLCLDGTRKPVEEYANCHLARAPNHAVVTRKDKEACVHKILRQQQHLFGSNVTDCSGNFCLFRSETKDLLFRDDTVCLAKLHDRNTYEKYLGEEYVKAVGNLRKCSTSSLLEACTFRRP

Binder	Kd (human transferrin [1])	koff (human transferrin [1])	kon (human transferrin [1])	Kd [2]	koff [2]	kon [2]	Kd (human transferrin [3])	koff (human transferrin [3])	kon (human transferrin [3])	Kd [4]	koff [4]	kon [4]
AS01299 sdAb (VHH, Llama sdAb made in E. coli with a C-terminal 6xHis tag; also called sdAb AS01299) VHH: QVQLVESGGGLVQPGGSLRLSCAASGSIFSIATMAWYRQAPGKQRELVAGITRSGSTNYRDSVKGRFTISRDNAKNTMYLQMNSLKPEDTAVYYCTDYSSRYYHDYWGQGTQVTVSS	140 nM	0.0031 s⁻¹	22000 M⁻¹ s⁻¹	8.8 nM	0.00046 s⁻¹	52000 M⁻¹ s⁻¹	0.98 nM	0.0022 s⁻¹	2.2e+06 M⁻¹ s⁻¹	0.065 nM	0.00056 s⁻¹	8.6e+06 M⁻¹ s⁻¹
AS01299VH3a-L47 (VHH, Humanized variant of AS01299, C-terminal 6xHis tag; also called AS01299VH3a-L47-2) VHH: EVQLVESGGGLVQPGGSLRLSCAASGSIFSIATMAWYRQAPGKGLEWVAGITRSGSTNYRDSVKGRFTISRDNSKNTMYLQMNSLRAEDTAVYYCTDYSSRYYHDYWGQGTLVTVSS							3.7 nM	0.0025 s⁻¹	680000 M⁻¹ s⁻¹	0.053 nM	0.00048 s⁻¹	8.9e+06 M⁻¹ s⁻¹
AS01299VH3a (VHH, Humanized variant of AS01299, C-terminal 6xHis tag) VHH: EVQLVESGGGLVQPGGSLRLSCAASGSIFSIATMAWYRQAPGKGLELVAGITRSGSTNYRDSVKGRFTISRDNSKNTMYLQMNSLRAEDTAVYYCTDYSSRYYHDYWGQGTLVTVSS							1.3 nM	0.0011 s⁻¹	810000 M⁻¹ s⁻¹	0.057 nM	0.00028 s⁻¹	4.9e+06 M⁻¹ s⁻¹
AS01274 sdAb (VHH, Llama sdAb made in E. coli with a C-terminal 6xHis tag; also called sdAb AS01274) VHH: QVQLVESGGGLVQPGGSLRLSCVASGSIASIATMAWYRQAPGQQRELVAGITRGGSTKYADSVKGRFTISRDNAKNTLYLQMNSLKPDDTAVYYCTDYSRKYYQDYWGQGTQVTVSS	16 nM	0.00019 s⁻¹	12000 M⁻¹ s⁻¹	1.6 nM	4.4e-05 s⁻¹	27000 M⁻¹ s⁻¹	0.09 nM	0.0003 s⁻¹	3.3e+06 M⁻¹ s⁻¹	0.0067 nM	8.9e-05 s⁻¹	1.3e+07 M⁻¹ s⁻¹
AS01299VH3a-A49 (VHH, Humanized variant of AS01299, C-terminal 6xHis tag) VHH: EVQLVESGGGLVQPGGSLRLSCAASGSIFSIATMAWYRQAPGKGLELVSGITRSGSTNYRDSVKGRFTISRDNSKNTMYLQMNSLRAEDTAVYYCTDYSSRYYHDYWGQGTLVTVSS							2.4 nM	0.001 s⁻¹	420000 M⁻¹ s⁻¹	0.1 nM	0.00027 s⁻¹	2.6e+06 M⁻¹ s⁻¹
AS01299VH4-L47 (VHH, Humanized variant of AS01299, C-terminal 6xHis tag; also called AS01299VH4-L47-2) VHH: EVQLVESGGGLVQPGGSLRLSCAASGSIFSIATMAWYRQAPGKGLEWVSGITRSGSTNYRDSVKGRFTISRDNSKNTLYLQMNSLRAEDTAVYYCTDYSSRYYHDYWGQGTLVTVSS							6 nM	0.0035 s⁻¹	590000 M⁻¹ s⁻¹	0.071 nM	0.00066 s⁻¹	9.3e+06 M⁻¹ s⁻¹
AS01299VH3a-M78 (VHH, Humanized variant of AS01299, C-terminal 6xHis tag) VHH: EVQLVESGGGLVQPGGSLRLSCAASGSIFSIATMAWYRQAPGKGLELVAGITRSGSTNYRDSVKGRFTISRDNSKNTLYLQMNSLRAEDTAVYYCTDYSSRYYHDYWGQGTLVTVSS							1.1 nM	0.0012 s⁻¹	1e+06 M⁻¹ s⁻¹	0.058 nM	0.0003 s⁻¹	5.2e+06 M⁻¹ s⁻¹
AS01299VH4 (VHH, Humanized variant of AS01299, C-terminal 6xHis tag) VHH: EVQLVESGGGLVQPGGSLRLSCAASGSIFSIATMAWYRQAPGKGLELVSGITRSGSTNYRDSVKGRFTISRDNSKNTLYLQMNSLRAEDTAVYYCTDYSSRYYHDYWGQGTLVTVSS							1.1 nM	0.0011 s⁻¹	1e+06 M⁻¹ s⁻¹	0.054 nM	0.0003 s⁻¹	5.7e+06 M⁻¹ s⁻¹
AS01274VHa (VHH, Humanized variant of AS01274, C-terminal 6xHis tag) VHH: EVQLVESGGGLVQPGGSLRLSCAASGSIASIATMAWYRQAPGKGLELVAGITRGGSTKYADSVKGRFTISRDNSKNTLYLQMNSLRAEDTAVYYCTDYSRKYYQDYWGQGTLVTVSS							0.13 nM	0.0002 s⁻¹	1.5e+06 M⁻¹ s⁻¹	0.011 nM	8.1e-05 s⁻¹	7.3e+06 M⁻¹ s⁻¹
AS01274VHa-A49 (VHH, Humanized variant of AS01274, C-terminal 6xHis tag) VHH: EVQLVESGGGLVQPGGSLRLSCAASGSIASIATMAWYRQAPGKGLELVSGITRGGSTKYADSVKGRFTISRDNSKNTLYLQMNSLRAEDTAVYYCTDYSRKYYQDYWGQGTLVTVSS							0.11 nM	0.00016 s⁻¹	1.5e+06 M⁻¹ s⁻¹	0.009 nM	7.9e-05 s⁻¹	8.7e+06 M⁻¹ s⁻¹
